# Experimental data reported in the supplement of paper PMC9170038.
# Test system: K4 kissing-loop RNA reporter
# Assay: apparent KD of K4 kissing-loop reporter; higher = weaker reporter binding
# Details: Eterna round: R107; input ligand: arginine 13.2 mM
# Method: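 RNA-MaP round R107: designed RNA switches with theophylline, tryptophan, arginine or FMN aptamers are transcribed on-chip within common flanks. They are titrated with a labelled K4 kissing-loop RNA reporter in RNA-MaP buffer (100 mM Tris pH 7.5, 80 mM KCl, 4 mM MgCl2), without ligand or with the indicated ligand. Median apparent KD per design.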
# 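Also: bound reporter read as fluorescence of individual clusters on recovered sequencing chips by microscopy, with normalized cluster intensities fitted with a binding model.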
row,Sequence,apparent KD of K4 kissing-loop reporter [nM]
1,UUUUUUAAGAUGUCGACCAACCCGAAGCUACGAGGACCGGUACGGCCGCCACUCGCCAGUGAUGUUGGCGACUGGUGAAACCAUG [Ceesaror],97.8
2,AAGGCCACGAGAAGGAGCGUGUUGUGGAGUGAUGUUCCAUUGUAGACCUAAGGUCUGCAAGCACAGGUAGGUCGCUCGUGGUCAA [whbob_SS_Arginine_B_2t149],123
3,AAGGUUGUGCAUGGGAGUGAUGUUCCCAAGCAGGAUAUCGCUCACGCGAGAAGGGCUUGCACAACCGCUCAAGAAACUUGAGCAA [Omei KL FMN A SS C v6],179
4,GGUAGCAUGGCGGCCGCCACUUCAAGUGGAGUGAUGUUCCGCGGCAUCGCGAAAGCGAUGCCUGGAAGGACCGGGCCAUGCUACC,858
5,UGGAGGAAUCGACCUCGAAAGAGGAUGGAUACCAGAGAAGAAAUUCUCCCUUGGCAGCCAGUGAUGUUGGAACCUCCUAAAUAAA [#SwitchBubble 18 #K4Late],445
6,GGAUAGGAUAGAGGAUAUGGGCUAGGCAAGAAUAACUUGUCUAGUAAAUCCAUGAGGAGUGAUGUUCCAGAAGGCUGUCCUAUCG [MatMod 2 - Jieux - Exclusion - FMN B],166
7,CUACGACAGGAAGGAUAUCGUGUGGAGAGCAGUUAUUUAAAGGUAGUGAUGUUACAGGAGACUGUUCGAGAAGGUCCUCAGUUAC [theeternabot_exclusion_KL_FMN_B_32],98.6
8,UGACAUUGCUCAGAUACCAGACUUGAGGAACACCCAAGUGCCAAAACGUACUAAAUAAAAGUCCCUUGGCAGCUGAGCAAUGUCU [TheoBX 13],30.6
9,CGAGAGGUCUUGUUUGGAUGUGUUUUAUGGCGAGGACCGGUACGGCCGCCACUCGGGUGAUGUUAGUGAUGUUGAUGUAGUGAUG [dcdmullin],79.9
10,AAAUAAAGCAGUCACCCAGUGAUGUUGGAAGGAGCGUGCGAAAGCACAGGUAGGUCGCCAAAAUAAAAGUGGCUGCGGCAAAGCC [#SwitchBubble 24 #K4Early],283
11,CUUGUACAAGUGAUGUUUGUUAUAUCCGAAGGAGCGUCGUAAUAGACAGGUAGGUCGCGGAGUUAGCUGGUUUUUUUAACAGCUA [JR_Nu_SSArginiA_Sub030],421
12,AUGCGUUGCACGGCCGCCACUGAUAUUAUGCUUCAGGAUGCUUCUGAAAGUGAUGUUUUCAGAUCCAGGACCGGGUGCCAAGAUU [theeternabot_sameState_KL_Trp_B_17],88.2
13,GAAUUUGCCGAUCAAAGUGAUGUUUUGGAUACCAGCCAUCAAGCUGGCCCUUGGCAGCCAACGUCGGCUGGCGACCGUGCGGACU [theeternabot_exclusion_KL_Theo_A_50],253
14,AAUACACUGUCGGCCGCCACUCUCGGCUGCAGUGUGCAGGGACAUGAGUGAUGUUUAUGUCGCGUGAGGACCGGGACUGAUGUAU [KL-SSTryp-B1 #analogue],257
15,UUUAACGAGUGAUGUUCGAAGAGUAAGGGUGAGGAUAUCGAUUUUUCGAGAAGGCGCCUCGAAGUGAUACGAAAGUAUCGCUUCG [FMN A 7],224
16,UGCAUGCUAGUAGUGAUGUUACAUGAUGAUACCAGUGCUUUUUUGCACCCUUGGCAGCGUCAUUUUGCAUGCACGUCGAAAGACG,473

row,Sequence,apparent KD of K4 kissing-loop reporter [nM]
1,GCAACAUUGGAAGGAUAUCAUUCUGAGUGAUGUUCAGGGUUCAGCUAACGAAAGUUAGUUGUACCAUGAGAAGGUCUAAUGUUGC [Omei KL FMN B SS A v4],646
2,UUCAGGUGUUCGGCCGCCACUCCAGUGAUGUUGGAGUGGCUUCACAAGGGCCAGGACAAUGUAAGGAGGACCGGGAAUAUCUCAG [Onisle],96.1
3,UGCAGUGAUGUUGCUAUUUGUCUUGAUAAACGAGGACCGGUACGGCCGCCACUCGAUUUCUCUCUUAUCGGGUAUGUUGUUUAGU [#21 K4 Tryptophan A Exclusion],186
4,AGAGUCGGCUGUGAUACCAGUCGUAUAACAACAUGUCGCAGUGAUGUUGCGAGAUAGGAUGACCCUUGGCAGCACUCAGUACGAU [Same State Theophylline B GF 7],372
5,UGAUAGGACAGAAGGAGCGGUAGUGAUGUUGCCAAAAGGAUAAGGUGUCAAAAGACACCCUACCAGGUAGGUCGCUGUCCUAUCU,216
6,UUUAUAUAGUCGGCCGCCACUGAUUUUUAUAUAUGUUUAUGUUUAUACGAGUGAUGUUCGAUAUACAGGACCGGGACUUUUGUUA [JR_SSTryptoB_Sub017],291
7,GCGUCGCAGGUCGCAGUACCAUCGCGGGAUACCAGCCCUGCUACCGGCCCUUGGCAGCCCGGUUAUCGGUUAGUGAUGUUAGCCA [theeternabot_sameState_KL_Theo_A_44],531
8,GUAUGUGGAAACACGUACUUGUAUCCUAAGCAGGAUAUGCGGAAACGCAGAAGGGCUACCAACGAGUUUAUCCAGUGAUGUUGGA [Ex FMN A 13],298
9,GUUACGCAUGGAAGGAGCGCAUGCUCAGCUAUAAGCUCAGUGAUGUUGAGCAUUUUUUUUUUGCAGGUAGGUCGCCAUGUGUAAC [Ex Arginine B K4 30],188
10,UGGACCUGACUCGAUACGAGUCAAUGAGAUACCAGCCACGAAAGUGGCCCUUGGCAGCUCUGCCAGUGAUGUUGGUCAAGGUCCU [#SwitchBubble 9 #StaticStem],1140
11,AAAUAGGAGUAAAUAAACAAUUUCCUUAGAGAGGAUAUUGGUAAUACAAGAAGGCUCUGUUGGGAGUGAUGUUCCCAUAACGCCU [Exclusion FMN A GF13],66.6
12,ACAGAGUGAUGUUUUGUAAAGAUCUUUGAUACCAGCGCCAGAAAUCGCCCUUGGCAGCAAGCCGUACAUACGUUGAUUGAUCCAC [theeternabot_exclusion_KL_Theo_A_14],694
13,ACGCGCGCGAGUGAUGUUCGGAGCGGCUGGCAGGAUAUGUAGCAAUGCAGAAGGGUCGUGGCGGCGCGGCCGUAAGGCGGCGCCG [#2 Exclusion - FMN A Attempt #14 (HarryS)],310
14,GGACGAGUGAUGUUCGUUAUUAUGCAUUCAGAGGAUAUAGGAUUAGCUAGAAGGCUGAAUCAAUCUUCGAGUGAUGUUCGAGGAU [Same State FMN A GF 10],146
15,UGAUAAUGCAGUGAUGUUGCUAGAAACGAUACCAGUUAAGAAAAGAACCCUUGGCAGCGUAAAGUGCGCUCUAAUGAGUGUGCUU [#10 K4 Theophylline A Same State],195
16,GCAUCCGAUGCAGGAUAUAGAUGAACGAGUGAUGUUUGGAAUUUAUGUCCAAAGCCUACGAUCAGACUAGAAGGGCAUCGGAUGC,75.4

# Same assay, conditions: Eterna round: R107; input ligand: none
row,Sequence,apparent KD of K4 kissing-loop reporter [nM]
1,UAGUCCUAGUGAUCCUUAUCAAGUGGUGGGCGAGGACCGGUACGGCCGCCACUCGAAUAUGCAGUGAUGUUGUAAUCCGGACAAU [Exclusion - Tryptophan A (Freestyle 11)],852
2,GGAUAGGACAGAGGAUAUGGUGCUAGGCAAGAAUAACUUGUCUAGCAAUCCAUGAGGAGUGAUGUUCCAGAAGGCUGUCCUAUCG [FmnBX 3 - #SwitchBubble #StraticStem #DoubleMagnetSystem],137
3,CCAUAUUCGUCGGCCGCCACUAUAAGCCAUCAUACAUUGGCUCUGUGAAAGUGAUGUUUUCUUGAUAGGACCGGGACUGUCAGCA [theeternabot_sameState_KL_Trp_B_24],1020
4,UUUUAAUGCAGUGAUGUUGCAAAUAAAACAGAGGAUAUGCAUGGAAGCAGAAGGCUGAUAUGUCGUACUUCGACAUAUUAUAUUU [JR_SSFMNA_Sub012],91.4
5,AGUCCACUCUAAAGAGUGGACCUAAGGGAUACCAGUGAUGUUGGUCACCCUUGGCAGCCCAGGGCCCGGCGAAUAGCCGGGCCCA [#10 K4 Theophylline A Exclusion],115
6,AAAUUUAAUAUAUUUAAUUAAUUAUGUGAUACCAGACAUUUAUAAGUCCCUUGGCAGCACAAUGCAGUGAUGUUGCAUAUAAUAA [JR_SSTheophyA_Sub012],82.1
7,GUUAUGGACCUGGAUACCAGCUGGUACUAAGUGGGAAAAUGAAAGUGAUGUUUUCGUGCUAGCCCUUGGCAGCCAGCAACCCGCA [XTheo-B6],121
8,UAUUAAUUGUCAGGAUAUCGAAAUCGAGUGAUGUUCGUAAAUUAAUUAUUAUUAAUAAUAUUUAUACGAGAAGGGACAUUAUUUA [JR_SSFMNB_Sub002],758
9,AACGUUUUGUGAAGGAGCGCGAAAAGCAGUGAUGUUGCUUACUUACAAUUUAGAUUUAACACGCAGGUAGGUCGCACAAUACGUA [JR_SSArginiB_Sub016],266
10,GGCAGUGAUGUUGCCAGUGGCGGAUGCGAAGGAGCGCGGUGAGACGCAGGUAGGUCGCGCAUUGAAAUUGCUGUCACUAGGAUGC [whbob_Ex_Arginine_A_2t129],267
11,UUUUUUAAGAUGUCGACCAACCCGAAGCUACGAGGACCGGUACGGCCGCCACUCGCCAGUGAUGUUGGCGACUGGUGAAACCAUG [Ceesaror],110
12,AAGGCCACGAGAAGGAGCGUGUUGUGGAGUGAUGUUCCAUUGUAGACCUAAGGUCUGCAAGCACAGGUAGGUCGCUCGUGGUCAA [whbob_SS_Arginine_B_2t149],139
13,AAGGUUGUGCAUGGGAGUGAUGUUCCCAAGCAGGAUAUCGCUCACGCGAGAAGGGCUUGCACAACCGCUCAAGAAACUUGAGCAA [Omei KL FMN A SS C v6],195
14,GGUAGCAUGGCGGCCGCCACUUCAAGUGGAGUGAUGUUCCGCGGCAUCGCGAAAGCGAUGCCUGGAAGGACCGGGCCAUGCUACC,924
15,UGGAGGAAUCGACCUCGAAAGAGGAUGGAUACCAGAGAAGAAAUUCUCCCUUGGCAGCCAGUGAUGUUGGAACCUCCUAAAUAAA [#SwitchBubble 18 #K4Late],706
16,GGAUAGGAUAGAGGAUAUGGGCUAGGCAAGAAUAACUUGUCUAGUAAAUCCAUGAGGAGUGAUGUUCCAGAAGGCUGUCCUAUCG [MatMod 2 - Jieux - Exclusion - FMN B],324
17,CUACGACAGGAAGGAUAUCGUGUGGAGAGCAGUUAUUUAAAGGUAGUGAUGUUACAGGAGACUGUUCGAGAAGGUCCUCAGUUAC [theeternabot_exclusion_KL_FMN_B_32],119
18,UGACAUUGCUCAGAUACCAGACUUGAGGAACACCCAAGUGCCAAAACGUACUAAAUAAAAGUCCCUUGGCAGCUGAGCAAUGUCU [TheoBX 13],46.2
19,CGAGAGGUCUUGUUUGGAUGUGUUUUAUGGCGAGGACCGGUACGGCCGCCACUCGGGUGAUGUUAGUGAUGUUGAUGUAGUGAUG [dcdmullin],93.4
20,AAAUAAAGCAGUCACCCAGUGAUGUUGGAAGGAGCGUGCGAAAGCACAGGUAGGUCGCCAAAAUAAAAGUGGCUGCGGCAAAGCC [#SwitchBubble 24 #K4Early],492
21,CUUGUACAAGUGAUGUUUGUUAUAUCCGAAGGAGCGUCGUAAUAGACAGGUAGGUCGCGGAGUUAGCUGGUUUUUUUAACAGCUA [JR_Nu_SSArginiA_Sub030],679
